{
  "source": "the nanobody polyreactivity screen of Harvey et al. (2022)",
  "data": [
    {"experiment": "yeast display, Sf9 membrane polyspecificity reagent, FACS + sequencing; frameworks hold sequencing errors", "in_short": "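A nanobody's polyreactivity label depends on the gate it was sorted from. Yeast display cells were stained with 10% biotinylated, detergent-solubilized Sf9 membrane reagent for 1 hour at 4 °C, enriched on streptavidin microbeads and sorted by FACS. The low and high (top ~1%) gates were set on anti-HA fluorescence for expression and streptavidin fluorescence for reagent binding.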", "values": [
      {"sequence": "QVQLVESGGGLVQAGGSLRLSCAASGSTFVKYVMGRYRQAPGKERELVAAISRSSVRTYYADSVKGRFTISRDNAKNTVYLQMNSLKPEDTAVYYCAVVLSTYSYADYDYWGQGTLVTVSS", "polyreactivity (PSR sort gate)": "high polyreactivity"},
      {"sequence": "QVQLVESGGGLVQAGGSLRLSCAASGSTFVLYAMGWYRQAPGKERELVAAIDSSGGSTYYADSVKGRFTISRDNAKNTVYLQMNSLKPEDTAVYYCAKAGRYANLPYGYWGQGTQVTVSS", "polyreactivity (PSR sort gate)": "high polyreactivity"},
      {"sequence": "QVQLVESGGGLVQAGGSLRLSCAASGSTFVLYAMGWYRQAPGKERELVAAISTSGGRTYYADSVKGRFTISRDNAKNTVNLQMNSLKPEDTAVYYCAALTYVAQYDEYWGQGTQVTVSS", "polyreactivity (PSR sort gate)": "low polyreactivity"},
      {"sequence": "QVQLVESGGGLVQAGGSLRLSCAASGSTFVNAMGWYRQAPGKERELVAAISLSGDSTYYADSVKGRFTISRDNAKNTVYLQMNCLKPEDTAVYYCNADGLGGEDPEYLWYPVPDYDYWGQGTQVTVSS", "polyreactivity (PSR sort gate)": "low polyreactivity"},
      {"sequence": "QVQLVESGGGLVQAGGSLRLSCAASGSTFVNNAMGWYRQAPGKERELVAAIRNTGGRTYYADSVKGRFTISRDNAKNTVYLQMNSLKPEDTAVYYCAALSRVRTLWRMDYWGQGSQVTVSS", "polyreactivity (PSR sort gate)": "high polyreactivity"},
      {"sequence": "QVQLVESGGGLVQAGGSLRLSCAASGSTFVNNAMGWYRQAPGKERELVAAIRSSDGRTYYADSVKGRFTISRDNAKNTVYLLMNSLKPEDTAGYYCNAGYWRFIDSYDYWGQGTQVTVSS", "polyreactivity (PSR sort gate)": "high polyreactivity"},
      {"sequence": "QVQLVESGGGLVQAGGSLRLSCAASGSTFVNNAMGWYRQAPGKERELVAAIRSSGGSTYYADSVKGRFTISRDNAKNTVSLQMNSLKPEDTAVYYCNADRWKYELDYWGQGTQVTVSS", "polyreactivity (PSR sort gate)": "high polyreactivity"},
      {"sequence": "QVQLVESGGGLVQAGGSLRLSCAASGSTFVNNVMGWYRQAPGKERELVAAISGRGGNTYYADSVKGRFTISRDNAKNTVYLQMNSLKPEDTAVYYCAPYSWGWSLWTYDYWGQGTQVTVSS", "polyreactivity (PSR sort gate)": "high polyreactivity"},
      {"sequence": "QVQLVESGGGLVQAGGSLRLSCAASGSTFVNYAMGWYRQAPGKERELVAAITANGGRTYYADSVKGRFTISRDNAKNTVYLQMNSLKPEDTAVYYCNTESNLYRRRRNYWGQGTQVTVSS", "polyreactivity (PSR sort gate)": "low polyreactivity"},
      {"sequence": "QVQLVESGGGLVQAGGSLRLSCAASGSTFVNYVMGWYRQAPGKERELVAAISRRGTSTRYADSVKGRFTISRDNAKNTVYFQMNSLKPEDTAVYFCAATRYVGVTGYGYWGLGTQVTVSS", "polyreactivity (PSR sort gate)": "high polyreactivity"},
      {"sequence": "QVQLVESGGGLVQAGGSLRLSCAASGSTFVPNDMGWYRQAPGKERELVAGISSVGGTDADSVKGRFTISRDNAKNTVYLQMNSLKPEDTAVYYCNALHAYYVLTPYDYWGQGTQVTVSS", "polyreactivity (PSR sort gate)": "low polyreactivity"},
      {"sequence": "QVQLVESGGGLVQAGGSLRLSCAASGSTFVPYAMGWNRQAPGKERELVASISWRGGSTSYADSVKGRFTISRDNAKNTVYLQMNSLKPEDNAVYYCAARPRYRYKQDYYYWGQGSQVTVSS", "polyreactivity (PSR sort gate)": "high polyreactivity"},
      {"sequence": "QVQLVESGGGLVQAGGSLRLSCAASGSTFVPYAMGWYRQAPGKERELVAAISSAGSTNYADSVKGRFTISRDNAKNTVYLQMNSLKPEDTAVYYCARDIQDTYVFDYWGQGTQVTVSS", "polyreactivity (PSR sort gate)": "low polyreactivity"},
      {"sequence": "QVQLVESGGGLVQAGGSLRLSCAASGSTFVPYAMGWYRQAPGKERELVAAITWSGGDSTYYADSVKGRFTISRDNAKNTVYLQMNSLKPEDTAVYYCAASYLGRKYDYWGQGTQVTVSS", "polyreactivity (PSR sort gate)": "high polyreactivity"},
      {"sequence": "QVQLVESGGGLVQAGGSLRLSCAASGSTFVPYAMGWYRQAPGKERELVATIRWRGDRTYYADSVKGRFTSSRDNAKKTVYLQMNSLKPEDTAVYYCNTAGWSFYSGRYDYWGQGTQVTVSS", "polyreactivity (PSR sort gate)": "high polyreactivity"},
      {"sequence": "QVQLVESGGGLVQAGGSLRLSCAASGSTFVPYTMGWYRQAPGKERELVAVISSSGGNTYYADSVKGRFTISRDNAKNTVYLQMNSLKPEDTAVYYCNKDYWYPNYRRYEYWGQGTQVTVSS", "polyreactivity (PSR sort gate)": "low polyreactivity"},
      {"sequence": "QVQLVESGGGLVQAGGSLRLSCAASGSTFVQNAMGWYRQAPGNERELVAAISRTGGSTYYADSVKGRFTISRDNAKNTVYLQMNSLKPEDTAVYYCAKRPPNYSWPKIIEFGSWGLGTQVTVSS", "polyreactivity (PSR sort gate)": "high polyreactivity"},
      {"sequence": "QVQLVESGGGLVQAGGSLRLSCAASGSTFVRNAMGWYRQAPGKERELVAAITSSGGSTYYADSVKGRFTISRDNAKYSVYLQMNSLKPEDTAVYYCAKRRYYRYDYWGQGTQVTVSS", "polyreactivity (PSR sort gate)": "low polyreactivity"},
      {"sequence": "QVQLVESGGGLVQAGGSLRLSCAASGSTFVRYAKGWYRQAPGKETELVAAISYRGGSTYYADSVKGRFTISRDNAKNTVYLQMNSLKPEDTAVYYCAAESRHVEGEYWGQGTQVTVSS", "polyreactivity (PSR sort gate)": "high polyreactivity"},
      {"sequence": "QVQLVESGGGLVQAGGSLRLSCAASGSTFVRYAMGWDRQAPGTEGSWVAAISVDGDSTYYADSVKGRFTISRDNAKNTVYFQLNSLKPEDTAVYYCNVPLWDYYPRFPLHDYWGQGTQVTVSA", "polyreactivity (PSR sort gate)": "low polyreactivity"},
      {"sequence": "QVQLVESGGGLVQAGGSLRLSCAASGSTFVRYDMGWYRQAPGKERELVADISWSGVSTYADSVKGRFTISRDNAKNTVYLQMNSLIAEDTAVYYCAKDSDLYQRGGYYWGQGTQVTVSS", "polyreactivity (PSR sort gate)": "low polyreactivity"},
      {"sequence": "QVQLVESGGGLVQAGGSLRLSCAASGSTFVRYTMGWYRQAPGKERELVAGITGGGSTNYADSVKGRFTISRDNAKNTVYLQMNSLKPEDTAVYYCAADLWWERAYPEYDYWGQGTQVTVSS", "polyreactivity (PSR sort gate)": "low polyreactivity"},
      {"sequence": "QVQLVESGGGLVQAGGSLRLSCAASGSTFVSNTMGWYRQAPGKERELVAAITWGGGGTYYADSVKGRFTISRDNAKNTVYLQMNSLKPEDTAVYYCAAKVQGGYYDYDYWGQGTQVTVSS", "polyreactivity (PSR sort gate)": "low polyreactivity"},
      {"sequence": "QVQLVESGGGLVQAGGSLRLSCAASGSTFVSYDMGWYRQAPGKERELVATIRRGGSTYYADSVKGRFTISRDNAKNTVYLQMNSLKPEDTAVYYCAAQQYAKYGWYAYDYWGQGTQVTVSS", "polyreactivity (PSR sort gate)": "low polyreactivity"},
      {"sequence": "QVQLVESGGGLVQAGGSLRLSCAASGSTFVTNDMGWSRQAPGKERELVAAISSGTSTNYAYSVKGRFTISRDNAKNTVYLQMNSQKPEDTAVYYCAADSLKRYDYWGQGTQVTVSS", "polyreactivity (PSR sort gate)": "low polyreactivity"},
      {"sequence": "QVQLVESGGGLVQAGGSLRLSCAASGSTFVTYAMGWYRQAPGKERELVAAISSGGGNTYYADSVKGRFTISRDNAKNTVYLQMNSLKPEDSAVYYCAAVNPRSEYDYWGQGTQVTVSS", "polyreactivity (PSR sort gate)": "high polyreactivity"},
      {"sequence": "QVQLVESGGGLVQAGGSLRLSCAASGSTFVTYAMGWYRQAPGKERELVAAISYSGGSTYADSVKGRFTISRDNAKNTVYLQMNSLKPEDTAVYYCNSDTSVDVRFDYWGQGTQVTVSS", "polyreactivity (PSR sort gate)": "low polyreactivity"},
      {"sequence": "QVQLVESGGGLVQAGGSLRLSCAASGSTFVVNAMGWYRQAPGKERELVAAITQDGDGTYYADSVKGRFTISRDNAKNTVYLQMNSLKPEDTAVYYCAAYPFYGPYDEFDYWGQGTQVTVSS", "polyreactivity (PSR sort gate)": "low polyreactivity"},
      {"sequence": "QVQLVESGGGLVQAGGSLRLSCAASGSTFVVYAMGWYRQAPGKERELLAAIRANVGGTYYADSVKGRFTISRDNAKNTVYLQMNSLKPEDTAVYYCAAGGYYYNPSFTYGILDYEYCGQGTQVTVSS", "polyreactivity (PSR sort gate)": "low polyreactivity"},
      {"sequence": "QVQLVESGGGLVQAGGSLRLSCAASGSTFVWYVMGWYRQAPGKEREFVAAISTSGGRTYYADSVKGRFTISRDNAKNTGYLQMNSLKPEDTAVYYCATRPYFTYRWYDYWGQGTQVTVSS", "polyreactivity (PSR sort gate)": "high polyreactivity"},
      {"sequence": "QVQLVESGGGLVQAGGSLRLSCAASGSTFVYNAMGWDRQAPGKERELVAAITVSDGSTYYADSVKGRFTISRDNAKNTVYLHMKSLKPEDTAVFYCNADFPRKTRYEYWGQGTQVTVSS", "polyreactivity (PSR sort gate)": "low polyreactivity"},
      {"sequence": "QVQLVESGGGLVQAGGSLRLSCAASGSTFVYNAMGWYRQAPGKERELVAAISWSDGSTYYADSVKGRFTISRDNAKNTVYLELNSLKPEDTAVYYCADEGYYSWDVHDYNYWGQGTQVTVSS", "polyreactivity (PSR sort gate)": "high polyreactivity"}
    ]}
  ]
}
